# According to patent US20130196320A1, “METHOD FOR IMPROVING CLEAVAGE OF DNA BY ENDONUCLEASE SENSITIVE TO METHYLATION” (CELLECTIS, priority 2010, published 2013):
# How the values were obtained:
# [1] = test system: XPC4 target CpG motives in 293H cells; assay: DNA methylation of XPC4 target by bisulfite treatment and sequencing, siRNA targeting DNMT1; format: cell-based, human; settings: for amount of unmethylated C, % of total: one of the two CpG of XPC4 target; for amount of unmethylated C: the other CpG of XPC4 target
# From the text: FIG. 15: Chromatogram. In order to determine the methylation status of the two CpG motives present in the XPC4 target sequence, genomic DNA was extracted, and treated with bisulfite. Bisulfite treatment is based on a chemical reaction of sodium bisulfite with DNA that converts unmethylated cytosines into uracil whereas methylated cytosines remain unchanged. DNA was then amplified by PCR and sequenced. […] For one of the two CpG ([…]; SEQ ID NO: 24) the amount of unmethylated C was estimated to 20 and 30% of total after 1 nM and 5 nM of si_DNMT1, respectively. For the other CpG ([…]; SEQ ID NO: 24) the amount of unmethylated C was estimated to 25 and 50% after 1 nM and 5 nM of si_DNMT1, respectively.
# (§1) The human 293H cells (ATCC) were plated at a density of 1.2×10^6 cells per 10 cm dish in complete medium (DMEM supplemented with 2 mM L-glutamine, penicillin (100 IU/ml), streptomycin (100 μg/ml), amphotericin B (Fongizone: 0.25 μg/ml, Invitrogen-Life Science) and 10% FBS). The next day, cells were transfected with 5 μg of empty vector pCLS003 (SEQ ID NO: 65) and 1 nM or 5 nM of si_DNMT1 composed of mixture of two siRNA DNMT1—1 ([…], SEQ ID NO: 66) and DNMT1—2 ([…], SEQ ID NO: 67) or with si_AS, a siRNA control with no known human target, using Lipofectamine 2000 as transfection reagent (Invitrogen) according to the manufacturer's protocol. The day after, cells were re-platted at the density of 1.2×10^6 cells per 10 cm. 24 hours after, cells were transfected again with 1 nM or 5 nM of siDNMT1 or si_AS in presence of 3 μg of meganuclease expressing vector (pCLS2510; SEQ ID NO: 68) and 2 μg of empty vector or 5 μg of empty vector (SEQ ID NO: 65), with Lipofectamine 2000 transfection reagent (Invitrogen) according to the manufacturer's protocol.
# To assess the level DNA methylation, DNA sequencing was performed after a bisulfite treatment according to the instructions of the manufacturer (EZ DNA methylation-Gold Kit, Zymo Research). After genomic DNA extraction, the XPC4 target locus was amplified by PCR with specific primers
# [2] = test system: XPC4 target locus in 293H cells; assay: Meganuclease-induced mutagenesis at XPC4 target locus by deep sequencing, siRNA targeting DNMT1; format: cell-based, human; settings: for mutagenesis, PCR fragments carrying a mutation: Empty vector
# Description: as §1
# After genomic DNA extraction, the XPC4 target locus was amplified with specific primers flanked by specific adaptator needed for HTS sequencing on the 454 sequencing system (454 Life Sciences)
# 5,000 to 10,000 sequences per sample were analyzed.
# [3] = test system: CAPNS1 target in human CAPNS1 gene, 293H cells; assay: Meganuclease-induced mutagenesis assay at CAPNS1 recognition site; format: cell-based; settings: CAPNS1 meganuclease
# Description: (§2) The human 293H cells (ATCC) were plated at a density of 1.2×10^6 cells per 10 cm dish in complete medium (DMEM supplemented with 2 mM L-glutamine, penicillin (100 IU/ml), streptomycin (100 μg/ml), amphotericin B (Fongizone: 0.25 μg/ml, Invitrogen-Life Science) and 10% FBS). The cells were pre-treated with 5-aza-deoxycytidine at 0.2 μM or 1 μM, 48 hours before transfection and the treatment was maintained 48 hours post-transfection. The medium was changed every day. The cells were transfected with 3 μg of DNA plasmids encoding meganuclease for RAG or 2.5 μg of each monomer CAPNS1 using Lipofectamine 2000 transfection reagent (Invitrogen) according to the manufacturer's protocol.
# (§3) The efficiency of the meganuclease to promote mutagenesis at its endogenous recognition site was evaluated by sequencing the DNA surrounding the meganuclease cleavage site. Two days post-transfection, genomic DNA was extracted. 200 ng of genomic DNA were used to amplify (PCR amplification) the endogenous locus surrounding the meganuclease cleavage site. PCR amplification is performed to obtain a fragment flanked by specific adaptor sequences [adaptor A: 5′-[…]-NNNN-3′(SEQ ID NO: 46) and adaptor B, 5′-[…]-3′ (SEQ ID NO: 47)] provided by the company offering sequencing service (GATC Biotech AG, Germany) on the 454 sequencing system (454 Life Sciences). The primers sequences used for PCR amplification were:
# (§4) RAG_R1: 5′-[…]-[…]-3′ (SEQ ID NO: 58) and CAPNS1_J3: 5′-[…]-NNNN-[…] (SEQ ID NO: 59) and CAPNS1_R3: 5′-[…]-[…]-3′ (SEQ ID NO: 60). Sequences specific to the locus are underlined. The sequence NNNN in primer F1 is a Barcode sequence (Tag) needed to link the sequence with a PCR product. The percentage of PCR fragments carrying insertion or deletion at the meganuclease cleavage site is related to the mutagenesis induced by the meganuclease through NHEJ pathway in a cell population, and therefore correlates with the meganuclease activity at its endogenous recognition site. 5000 to 10000 sequences were analyzed per conditions.
# C1221 DNA target = assay: In vitro cleavage assay with C1221 duplex, increasing meganuclease concentration; format: biochemical
# Description: FIG. 2: In vitro cleavage of unmethylated or methylated C1221 by I-CreI. A constant amount of C1221 (50 nM) was incubated with increasing concentrations of I-CreI (0 to 2 μM) in reaction buffer (10 mM Tris-HCl, 150 mM NaCl, 10 mM MgCl2, pH8) for an hour at 37° C. The reaction was stopped and the remaining uncleaved C1221 was quantify and plotted as function of I-CreI concentration.
# FIG. 3: In vitro cleavage of unmethylated or methylated C1221 by I-CreI D75N. 50 nM C1221 containing either 0, 1, 2 or 3 methylated CG was incubated with increasing concentrations of I-CreI D75N (0 to 2 μM) in reaction buffer (10 mM Tris-HCl, 150 mM NaCl, 10 mM MgCl2, pH8) for an hour at 37° C. The reaction was stopped and cleaved and uncleaved C1221 (top and bottom panel respectively) were quantify and plotted as function of I-CreI D75N concentration.
# To investigate the influence of C1221 methylation on the nuclease activity of I-CreI, an in vitro cleavage assay with either unmethylated or fully methylated C1221 duplex (SEQ ID NOs: 4-5 and 12-13 respectively) was performed. A constant amount of C1221 duplex (50 nM) was incubated with increasing concentration of I-CreI (0 to 2 μM) in a total volume of 25 μL of reaction buffer (10 mM Tris-HCl, 150 mM NaCl, 10 mM MgCl2, pH8). Cleavage reaction was allowed to proceed 1 hour at 37° C. and then stopped by addition of 5 μL of 6× stop buffer (45% glycerol, 95 mM EDTA, 1.5% (w/v) SDS, 1.5 mg/mL proteinase K and 0.048% (w/v) bromophenol blue) followed by an hour incubation at 37° C. Cleaved and uncleaved DNA products were separated by PAGE using a TGX Any kD precast gel (Bio-Rad), stained with SYBR Green and then quantified using Quantity One software (Bio-Rad).
# To investigate the influence of C1221 methylation on the nuclease activity of I-CreI D75N, in vitro cleavage assay with C1221 duplex containing either 0, 1, 2 or 3 methylated CG (SEQ ID NOs: 4-5, 6-7, 8-9, 10-11 respectively) was performed, according to the procedure described for I-CreI wild type.
# [4] = test system: RAG target in human RAG1 gene, 293H cells; assay: Meganuclease-induced mutagenesis assay at RAG recognition site; format: cell-based; settings: RAG meganuclease
# Description: as §2, §3
# RAG_F1: 5′-[…]-NNNN-[…] (SEQ ID NO: 57) and
# as §4
molecule,measurement,setting,value
"si_DNMT1: mixture of two siRNA DNMT1—1 (SEQ ID NO: 66) and DNMT1—2 (SEQ ID NO: 67) targeting DNMT1 gene (chain 1 ACGGTGCTCATGCTTACAACC; chain 2 CCCAATGAGACTGACATCAAA; mixture of two siRNAs, further chemistry not given here)","amount of unmethylated C, % of total",[1]; 1 nM,20%
same,"amount of unmethylated C, % of total",[1]; 5 nM,30%
same,amount of unmethylated C,[1]; 1 nM,25%
same,amount of unmethylated C,[1]; 5 nM,50%
same,"mutagenesis, PCR fragments carrying a mutation",[2]; Si_DNMT1 1 nM,0.022%
same,"mutagenesis, PCR fragments carrying a mutation",[2]; Si_DNMT1 5 nM,0.055%
same,mutagenesis,"[2]; empty vector, 1 or 5 nM of si_DNMT1",low or absent
CAPNS1: engineered heterodimer meganuclease (SEQ ID NO: 62+SEQ ID NO: 63) cleaving the 5′ UTR of the human CAPNS1 gene (protein) chain 1: MANTKYNKEFLLYLAGFVDSDGSIIAQIKPRQSYKFKHQLRLTFYVTQKTQRRWFLDKLVDEIGVGYVEDSGSVSRYVLSEIKPLHNFLTQLQPFLKLKQKQANLVLKIIEQLPSAKESPDKFLEVCTWVDQVAALNDSKTRKTTSETVRAVLDSLSEKKKSSPAAD chain 2: MANTKYNKEFLLYLAGFVDGDGSIVAQIKPNQRAKFKHQLSLTFQVTQKTQRRWLLDKLVDEIGVGYVQDSGSVSNYRLSEIKPLHNFLTQLQPFLKLKQKQANLVLKIIEQLPSAKESPDKFLEVCTWADQIAALNDSKTRKTTSETVRAVLDSLSEKKKPSPAAD,"mutagenesis, PCR fragments carrying a mutation",[3]; 0 μM 5-aza-2′-deoxycytidine,6.10% ± 0.43
same,"mutagenesis, PCR fragments carrying a mutation","[3]; 0 μM 5-aza-2′-deoxycytidine, listed as CAPNS1 meganuclease",6.1%±0.43
same,"mutagenesis, PCR fragments carrying a mutation",[3]; 0.2 μM 5-aza-2′-deoxycytidine,6.55% ± 0.77
same,"mutagenesis, PCR fragments carrying a mutation","[3]; 0.2 μM 5-aza-2′-deoxycytidine, listed as CAPNS1 meganuclease",6.55%±0.77
same,"mutagenesis, PCR fragments carrying a mutation",[3]; 1 μM 5-aza-2′-deoxycytidine,4.34% ± 0.95
same,"mutagenesis, PCR fragments carrying a mutation","[3]; 1 μM 5-aza-2′-deoxycytidine, listed as CAPNS1 meganuclease",4.34%±0.95
"I-CreI D75N: I-CreI D75N meganuclease variant, SEQ ID NO: 22 (protein) MANTKYNKEFLLYLAGFVDGDGSIIAQIKPNQSYKFKHQLSLAFQVTQKTQRRWFLDKLVDEIGVGYVRDRGSVSDYILSEIKPLHNFLTQLQPFLKLKQKQANLVLKIIWRLPSAKESPDKFLEVCTWVDQIAALNDSKTRKTTSETVRAVLDSLSEKKKSSPAAD",increase of C50,C1221 DNA target; C1221 with one methyl group on both strand vs unmethylated,about 3 folds
same,increase of C50,C1221 DNA target; C1221 with three methyl groups vs unmethylated,more than 10 folds
same,increase of C50,C1221 DNA target; C1221 with two methyl groups vs unmethylated,more than 10 folds
same,meganuclease concentration at which C1221 cleaved product leveled up,C1221 DNA target; unmethylated C1221,about 500 nM
same,EC50,"C1221 DNA target; unmethylated C1221, 1 hour at 37° C., read-out: C50 (concentration of meganuclease needed to cleave 50% of C1221)",100 to 150 nM
RAG: engineered single chain meganuclease (SEQ ID NO: 61) designed to cleave a sequence in the human RAG1 gene (protein) MANTKYNEEFLLYLAGFVDGDGSIIAQINPNQSSKFKHRLRLTFYVTQKTQRRWFLDKLVDEIGVGYVRDSGSVSQYVLSEIKPLHNFLTQLQPFLELKQKQANLVLKIIEQLPSAKESPDKFLEVCTWVDQIAALNDSKTRKTTSETVRAVLDSLSGKKKSSPAAGGSDKYNQALSKYNQALSKYNQALSGGGGSNKKFLLYLAGFVDSDGSIIAQIKPRQSNKFKHQLSLTFAVTQKTQRRWFLDKLVDRIGVGYVYDSGSVSDYRLSEIKPLHNFLTQLQPFLKLKQKQANLVLKIIEQLPSAKESPDKFLEVCTWVDQIAALNDSKTRKTTSETVRAVLDSLSEKKKSSP,"mutagenesis, PCR fragments carrying a mutation",[4]; 0 μM 5-aza-2′-deoxycytidine,0.76% ± 0.02
same,"mutagenesis, PCR fragments carrying a mutation","[4]; 0 μM 5-aza-2′-deoxycytidine, listed as RAG meganuclease",0.75%±0.02
same,"mutagenesis, PCR fragments carrying a mutation",[4]; 0.2 μM 5-aza-2′-deoxycytidine,0.71% ± 0.17
same,"mutagenesis, PCR fragments carrying a mutation","[4]; 0.2 μM 5-aza-2′-deoxycytidine, listed as RAG meganuclease",0.71%±0.17
same,"mutagenesis, PCR fragments carrying a mutation",[4]; 1 μM 5-aza-2′-deoxycytidine,0.59% ± 0.3
same,"mutagenesis, PCR fragments carrying a mutation","[4]; 1 μM 5-aza-2′-deoxycytidine, listed as RAG meganuclease",0.59%±0.31
